Consider 14 molecules from patent US20150337049A1 (published 2015).

B1: bsIgG1 huCD3-H3L1xHER2-LFLEDA (bispecific antibody)
heavy 1: EVKLVESGGGLVKPGRSLRLSCAASGFTFNTYAMNWVRQAPGKGLEWVARIRSKYNNYATYYADSVKDRFTISRDDSKSILYLQMNSLKTEDTAMYYCVRHGNFGNSYVSWFAYWGQGTLVTVSSASTKGPSVFPLAPSSKSTSGGTAALGCLVKDYFPEPVTVSWNSGALTSGVHTFPAVLQSSGLYSLSSVVTVPSSSLGTQTYICNVNHKPSNTKVDKRVEPKSCDKTHTCPPCPAPEFEGGPSVFLFPPKPKDTLMISRTPEVTCVVVAVSHEDPEVKFNWYVDGVEVHNAKTKPREEQYNSTYRVVSVLTVLHQDWLNGKEYKCKVSNKALPAPIEKTISKAKGQPREPQVYTLPPSREEMTKNQVSLTCLVKGFYPSDIAVEWESNGQPENNYKTTPPVLDSDGSFLLYSKLTVDKSRWQQGNVFSCSVMHEALHNHYTQKSLSLSPGK
VL 1: not shown
heavy 2: QVQLVQSGAEVKKPGASVKVSCKASGYTFTNYGISWVRQAPGQGLEWMGWLSAYSGNTIYAQKLQGRVTMTTDTSTTTAYMELRSLRSDDTAVYYCARDRIVVRPDYFDYWGQGTLVTVSSASTKGPSVFPLAPSSKSTSGGTAALGCLVKDYFPEPVTVSWNSGALTSGVHTFPAVLQSSGLYSLSSVVTVPSSSLGTQTYICNVNHKPSNTKVDKRVEPKSCDKTHTCPPCPAPEFEGGPSVFLFPPKPKDTLMISRTPEVTCVVVAVSHEDPEVKFNWYVDGVEVHNAKTKPREEQYNSTYRVVSVLTVLHQDWLNGKEYKCKVSNKALPAPIEKTISKAKGQPREPQVYTLPPSREEMTKNQVSLTCLVKGFYPSDIAVEWESNGQPENNYKTTPPVLDSDGSFFLYSRLTVDKSRWQQGNVFSCSVMHEALHNHYTQKSLSLSPGK
VL 2: EIVLTQSPATLSLSPGERATLSCRASQSVSSYLAWYQQKPGQAPRLLIYDASNRATGIPARFSGSGSGTDFTLTISSLEPEDFAVYYCQQRSNWPRTFGQGTKVEIK
B2: IgG1-huCD3-H3L1-LFLEDA (antibody, V domains shown)
VH: EVKLVESGGGLVKPGRSLRLSCAASGFTFNTYAMNWVRQAPGKGLEWVARIRSKYNNYATYYADSVKDRFTISRDDSKSILYLQMNSLKTEDTAMYYCVRHGNFGNSYVSWFAYWGQGTLVTVSS
VL: not shown
B3: IgG1-huCD3-H4L1 (antibody, V domains shown)
VH: EVKLVESGGGLVKPGRSLRLSCAASGFTFNTYAMNWVRQAPGKGLEWVARIRSKYNNYATYYADSVKDRFTISRDDSKSILYLQMNSLKTEDTAMYYCVRHGNFGNSYVSWFAYWGQGTMVTVSS
VL: not shown
B4: IgG1-huCD3-H3L3 (antibody, V domains shown)
VH: EVKLVESGGGLVKPGRSLRLSCAASGFTFNTYAMNWVRQAPGKGLEWVARIRSKYNNYATYYADSVKDRFTISRDDSKSILYLQMNSLKTEDTAMYYCVRHGNFGNSYVSWFAYWGQGTLVTVSS
VL: QAVVTQEPSFSVSPGGTVTLTCRSSTGAVTTSNYANWVQQTPGQAFRGLIGGTNKRAPGVPARFSGSILGNKAALTITGAQADDESDYYCALWYSNLWVFGGGTKLTVL
B5: IgG1-huCD3-H1L2 (antibody, V domains shown)
VH: EVKLVESGGGLVQPGGSLRLSCAASGFTFNTYAMNWVRQAPGKGLEWVARIRSKYNNYATYYADSVKDRFTISRDDSKSSLYLQMNNLKTEDTAMYYCVRHGNFGNSYVSWFAYWGQGTLVTVSS
VL: QAVVTQEPSFSVSPGGTVTLTCRSSTGAVTTSNYANWVQQTPGQAFRGLIGGTNKRAPGVPARFSGSILGNKAALTITGAQADDESIYFCALWYSNLWVFGGGTKLTVL
B6: IgG1-huCD3-H1L1 (antibody, V domains shown)
VH: EVKLVESGGGLVQPGGSLRLSCAASGFTFNTYAMNWVRQAPGKGLEWVARIRSKYNNYATYYADSVKDRFTISRDDSKSSLYLQMNNLKTEDTAMYYCVRHGNFGNSYVSWFAYWGQGTLVTVSS
VL: not shown
B7: IgG1-huCD3-H1L3 (antibody, V domains shown)
VH: EVKLVESGGGLVQPGGSLRLSCAASGFTFNTYAMNWVRQAPGKGLEWVARIRSKYNNYATYYADSVKDRFTISRDDSKSSLYLQMNNLKTEDTAMYYCVRHGNFGNSYVSWFAYWGQGTLVTVSS
VL: QAVVTQEPSFSVSPGGTVTLTCRSSTGAVTTSNYANWVQQTPGQAFRGLIGGTNKRAPGVPARFSGSILGNKAALTITGAQADDESDYYCALWYSNLWVFGGGTKLTVL
B8: IgG1-huCD3-H3L3, wild type Fc region (antibody, V domains shown)
VH: EVKLVESGGGLVKPGRSLRLSCAASGFTFNTYAMNWVRQAPGKGLEWVARIRSKYNNYATYYADSVKDRFTISRDDSKSILYLQMNSLKTEDTAMYYCVRHGNFGNSYVSWFAYWGQGTLVTVSS
VL: QAVVTQEPSFSVSPGGTVTLTCRSSTGAVTTSNYANWVQQTPGQAFRGLIGGTNKRAPGVPARFSGSILGNKAALTITGAQADDESDYYCALWYSNLWVFGGGTKLTVL
B9: IgG1-huCD3-H1L2, wild type Fc region (antibody, V domains shown)
VH: EVKLVESGGGLVQPGGSLRLSCAASGFTFNTYAMNWVRQAPGKGLEWVARIRSKYNNYATYYADSVKDRFTISRDDSKSSLYLQMNNLKTEDTAMYYCVRHGNFGNSYVSWFAYWGQGTLVTVSS
VL: QAVVTQEPSFSVSPGGTVTLTCRSSTGAVTTSNYANWVQQTPGQAFRGLIGGTNKRAPGVPARFSGSILGNKAALTITGAQADDESIYFCALWYSNLWVFGGGTKLTVL
B10: IgG1-huCD3-H1L3, wild type Fc region (antibody, V domains shown)
VH: EVKLVESGGGLVQPGGSLRLSCAASGFTFNTYAMNWVRQAPGKGLEWVARIRSKYNNYATYYADSVKDRFTISRDDSKSSLYLQMNNLKTEDTAMYYCVRHGNFGNSYVSWFAYWGQGTLVTVSS
VL: QAVVTQEPSFSVSPGGTVTLTCRSSTGAVTTSNYANWVQQTPGQAFRGLIGGTNKRAPGVPARFSGSILGNKAALTITGAQADDESDYYCALWYSNLWVFGGGTKLTVL
B11: IgG1-huCD3-H4L1, wild type Fc region (antibody, V domains shown)
VH: EVKLVESGGGLVKPGRSLRLSCAASGFTFNTYAMNWVRQAPGKGLEWVARIRSKYNNYATYYADSVKDRFTISRDDSKSILYLQMNSLKTEDTAMYYCVRHGNFGNSYVSWFAYWGQGTMVTVSS
VL: not shown
B12: IgG1-huCD3-H3L1 with LFLEDA mutations (antibody, V domains shown)
VH: EVKLVESGGGLVKPGRSLRLSCAASGFTFNTYAMNWVRQAPGKGLEWVARIRSKYNNYATYYADSVKDRFTISRDDSKSILYLQMNSLKTEDTAMYYCVRHGNFGNSYVSWFAYWGQGTLVTVSS
VL: not shown
B13: BsIgG1 CD3 x HER2 (bispecific antibody)
chain 1: EVKLLESGGGLVQPKGSLKLSCAASGFTFNTYAMNWVRQAPGKGLEWVARIRSKYNNYATYYADSVKDRFTISRDDSQSILYLQMNNLKTEDTAMYYCVRHGNFGNSYVSWFAYWGQGTLVTVSA
chain 2: QAVVTQESALTTSPGETVTLTCRSSTGAVTTSNYANWVQEKPDHLFTGLIGGTNKRAPGVPARFSGSLIGDKAALTITGAQTEDEAIYFCALWYSNLWVFGGGTKLTVL
chain 3: QVQLVQSGAEVKKPGASVKVSCKASGYTFTNYGISWVRQAPGQGLEWMGWLSAYSGNTIYAQKLQGRVTMTTDTSTTTAYMELRSLRSDDTAVYYCARDRIVVRPDYFDYWGQGTLVTVSS
chain 4: EIVLTQSPATLSLSPGERATLSCRASQSVSSYLAWYQQKPGQAPRLLIYDASNRATGIPARFSGSGSGTDFTLTISSLEPEDFAVYYCQQRSNWPRTFGQGTKVEIK
B14: bsIgG1 huCD3-H3L1×HER2-LFLEDA (bispecific antibody)
heavy 1: EVKLVESGGGLVKPGRSLRLSCAASGFTFNTYAMNWVRQAPGKGLEWVARIRSKYNNYATYYADSVKDRFTISRDDSKSILYLQMNSLKTEDTAMYYCVRHGNFGNSYVSWFAYWGQGTLVTVSSASTKGPSVFPLAPSSKSTSGGTAALGCLVKDYFPEPVTVSWNSGALTSGVHTFPAVLQSSGLYSLSSVVTVPSSSLGTQTYICNVNHKPSNTKVDKRVEPKSCDKTHTCPPCPAPEFEGGPSVFLFPPKPKDTLMISRTPEVTCVVVAVSHEDPEVKFNWYVDGVEVHNAKTKPREEQYNSTYRVVSVLTVLHQDWLNGKEYKCKVSNKALPAPIEKTISKAKGQPREPQVYTLPPSREEMTKNQVSLTCLVKGFYPSDIAVEWESNGQPENNYKTTPPVLDSDGSFLLYSKLTVDKSRWQQGNVFSCSVMHEALHNHYTQKSLSLSPGK
VL 1: not shown
heavy 2: QVQLVQSGAEVKKPGASVKVSCKASGYTFTNYGISWVRQAPGQGLEWMGWLSAYSGNTIYAQKLQGRVTMTTDTSTTTAYMELRSLRSDDTAVYYCARDRIVVRPDYFDYWGQGTLVTVSSASTKGPSVFPLAPSSKSTSGGTAALGCLVKDYFPEPVTVSWNSGALTSGVHTFPAVLQSSGLYSLSSVVTVPSSSLGTQTYICNVNHKPSNTKVDKRVEPKSCDKTHTCPPCPAPEFEGGPSVFLFPPKPKDTLMISRTPEVTCVVVAVSHEDPEVKFNWYVDGVEVHNAKTKPREEQYNSTYRVVSVLTVLHQDWLNGKEYKCKVSNKALPAPIEKTISKAKGQPREPQVYTLPPSREEMTKNQVSLTCLVKGFYPSDIAVEWESNGQPENNYKTTPPVLDSDGSFFLYSRLTVDKSRWQQGNVFSCSVMHEALHNHYTQKSLSLSPGK
VL 2: EIVLTQSPATLSLSPGERATLSCRASQSVSSYLAWYQQKPGQAPRLLIYDASNRATGIPARFSGSGSGTDFTLTISSLEPEDFAVYYCQQRSNWPRTFGQGTKVEIK

One experiment deals with T1, HSC-F (cynomolgous CD3) (cynomolgus monkey, UniProt Q95LI8 22-171; Q95LI7 23-181). The experiment can be described thus: FACS binding, HSC-F.
T1 sequence (Q95LI7 whole entry, looked up, chain 1 of 2): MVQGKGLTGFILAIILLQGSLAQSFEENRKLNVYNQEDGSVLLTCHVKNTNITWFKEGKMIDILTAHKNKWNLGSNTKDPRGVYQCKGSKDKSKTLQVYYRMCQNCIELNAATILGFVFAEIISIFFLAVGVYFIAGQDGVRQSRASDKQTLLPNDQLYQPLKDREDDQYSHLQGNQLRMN
T1 sequence (Q95LI8 whole entry, looked up, chain 2 of 2): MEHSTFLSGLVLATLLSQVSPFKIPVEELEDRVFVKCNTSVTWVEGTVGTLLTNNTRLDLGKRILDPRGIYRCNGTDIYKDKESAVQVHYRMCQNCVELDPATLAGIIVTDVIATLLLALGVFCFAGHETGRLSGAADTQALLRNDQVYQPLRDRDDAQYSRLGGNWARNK
The molecule B1 yielded a concentration for a half-maximal effect (EC50) of 3.54 µg/mL.

B2 showed a half-maximal effective concentration (EC50) of 0.3 µg/mL.

The next experiment deals with T1, HSC-F (cynomolgous CD3). Nature of the experiment: FACS binding, HSC-F. The source holds these as a separate data set.
The molecule B3 gave a concentration giving a half-maximal response (EC50) of 0.26 µg/mL.

For B2, the concentration for a half-maximal effect (EC50) was found to be 0.19 µg/mL.

The molecule B4 came in with an EC50 of 0.11 µg/mL.

Turning to B5, the EC50 was found to be 0.31 µg/mL.

B6 registered a concentration for a half-maximal effect (EC50) of 0.37 µg/mL.

On to B7, for which the EC50 was 0.28 µg/mL.

The target in a further experiment is T2, human CD3 on the human T-cell line Jurkat (human, UniProt P09693 23-182; P20963 22-164). The experiment can be described thus: FACS binding, Jurkat.
T2 sequence (chain, as listed by the source, chain 1 of 4): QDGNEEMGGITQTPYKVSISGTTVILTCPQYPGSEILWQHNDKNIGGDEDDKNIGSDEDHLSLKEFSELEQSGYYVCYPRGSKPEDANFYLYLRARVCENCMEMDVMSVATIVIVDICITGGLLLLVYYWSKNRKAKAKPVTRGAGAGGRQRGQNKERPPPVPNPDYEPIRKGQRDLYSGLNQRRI
T2 sequence (chain, as listed by the source, chain 2 of 4): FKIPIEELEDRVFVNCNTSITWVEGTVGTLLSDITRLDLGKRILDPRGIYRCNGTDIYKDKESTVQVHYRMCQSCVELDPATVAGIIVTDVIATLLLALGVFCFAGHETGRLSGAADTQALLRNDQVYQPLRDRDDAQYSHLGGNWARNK
T2 sequence (P09693 23-182, chain 3 of 4): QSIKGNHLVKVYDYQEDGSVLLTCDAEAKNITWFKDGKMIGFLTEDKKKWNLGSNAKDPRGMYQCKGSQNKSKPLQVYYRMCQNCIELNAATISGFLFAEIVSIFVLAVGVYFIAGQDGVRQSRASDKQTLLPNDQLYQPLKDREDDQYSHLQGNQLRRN
T2 sequence (P20963 22-164, chain 4 of 4): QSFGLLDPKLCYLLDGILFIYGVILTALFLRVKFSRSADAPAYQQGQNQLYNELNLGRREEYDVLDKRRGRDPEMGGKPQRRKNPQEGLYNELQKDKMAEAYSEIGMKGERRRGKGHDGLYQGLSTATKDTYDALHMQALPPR
Molecule B8 returned a half-maximal effective concentration (EC50) of 0.02 µg/mL.

For the molecule B9, the concentration giving a half-maximal response (EC50) amounted to 0.08 µg/mL.

As for B10, the concentration giving a half-maximal response (EC50) worked out at 0.06 µg/mL.

With B11, the concentration for a half-maximal effect (EC50) is 0.05 µg/mL.

On to B12, for which the concentration for a half-maximal effect (EC50) worked out at 0.04 µg/mL.

The target in a further experiment is Jurkat (CD3) (human, UniProt P09693 23-182; P20963 22-164). The experiment can be described thus: FACS binding, Jurkat.
Sequence of Jurkat (CD3) (chain, as listed by the source, chain 1 of 4): as the sequence (chain, as listed by the source, chain 1 of 4) above
Sequence of Jurkat (CD3) (chain, as listed by the source, chain 2 of 4): as the sequence (chain, as listed by the source, chain 2 of 4) above
Sequence of Jurkat (CD3) (P09693 23-182, chain 3 of 4): as the sequence (P09693 23-182, chain 3 of 4) above
Sequence of Jurkat (CD3) (P20963 22-164, chain 4 of 4): as the sequence (P20963 22-164, chain 4 of 4) above
On to B13, for which the EC50 was found to be 0.68 µg/mL.

Another experiment has as its target T2, human CD3 on the human T-cell line …. Nature of the experiment: FACS binding, Jurkat. This is another data set of the same source.
In turn, B14 showed an EC50 of 0.28 µg/mL.

Molecule B12 returned an EC50 of 0.04 µg/mL.
